Experimental findings from publication doi:10.1101/2020.08.21.261974 are described below.

For this test, the target named is BG505 SOSIP.664 native-like envelope gp140 trimer (HIV-1 (BG505)). Put plainly: cryo-EM structure.

In turn, M48U1 peptide gave a stoichiometry N (per BG505 trimer) of 3.
